“And” between values parts separate entries of the source, which are not always exact repeats. Equal values may be shown once.

The text below walks through data of PMC9945994 (Proceedings of the National Academy of Sciences of the …, 2023).

Test [1] deals with PscA, 82-kDa core subunit of the green sulfur bacterial reaction center (GsbRC) (Chlorobaculum tepidum TLS). The test is described as follows: cryo-EM structure.
The target of test [2] is T1, Fenna–Matthews–Olson (FMO) protein (Chlorobaculum tepidum TLS, UniProt Q46393 1-366).
T1 sequence (looked up): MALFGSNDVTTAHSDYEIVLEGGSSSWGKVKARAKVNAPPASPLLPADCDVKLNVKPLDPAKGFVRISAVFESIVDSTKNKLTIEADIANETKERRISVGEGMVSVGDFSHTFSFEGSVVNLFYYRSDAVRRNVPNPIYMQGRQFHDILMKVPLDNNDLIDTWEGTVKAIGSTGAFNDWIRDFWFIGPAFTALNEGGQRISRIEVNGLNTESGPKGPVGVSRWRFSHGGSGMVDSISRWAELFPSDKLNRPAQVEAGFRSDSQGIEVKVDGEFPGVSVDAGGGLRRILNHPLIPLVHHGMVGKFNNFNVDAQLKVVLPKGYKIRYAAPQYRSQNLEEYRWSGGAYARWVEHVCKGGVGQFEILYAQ
The test is described as follows: cryo-EM structure.

Test [3] addresses reaction center of the green sulfur bacterium Chlorobaculum tepidum (GsbRC) (Chlorobaculum tepidum TLS) (UniProt O07091).

In general, stoichiometry N refers to a count of units in the complex or per binding partner. Molecule “PscA, 82-kDa core subunit of the green sulfur bacterial reaction center (GsbRC) (natural protein)” registered a stoichiometry N in test [1] of 2.

B1: PscD, 17-kDa protein of GsbRC (natural protein, Chlorobaculum tepidum TLS, UniProt Q8KEP5 1-143, looked up)
chain: MQPQLSRPQTASNQVRKAVSGPWSGNAVHKAEKYFITSAKRDRDGKLQIELVPASGRRKLSPTPEMIRRLIDGEIEIYILTTQPDIAIDMNKEIIDMENRYVIDFDKRGVKWTMREIPVFYHEGKGLCVELHNKIYTLDQFFK
Consider B1, for which the binding result in test [2] is reported as “binds”.

B2: Fenna–Matthews–Olson (FMO) protein (natural protein)
chain: T1 sequence (looked up)
On to B2, for which the stoichiometry N in test [3] was 2 and 1.
